This is an account of results in publication PMC8168301.

Values joined by “and” are separate entries in the source; they are usually repeats but may differ in a detail not shown here. Equal values may be shown once. Read-outs that look alike come from different tables or passages of the source.

The target of data set [1] is T1, N NTD (SARS-CoV-2, UniProt P0DTC9 44-176). Put plainly: fluorescence polarization. On the technique in general: Polarisation of emitted light reports the rotation of a fluorescent probe.
Data set [2] concerns the target T2, N CTD (SARS-CoV-2, UniProt P0DTC9 248-369). The data set is described as follows: fluorescence polarization.
Data set [3] has as its target N NTD-LKR-CTD-Carm (SARS-CoV-2, UniProt P0DTC9 44-419). The data set is described as follows: fluorescence polarization.
Data set [4] deals with T3, N WT (SARS-CoV-2, UniProt P0DTC9 1-419). The data set is described as follows: fluorescence polarization.
The target of data set [5] is T4, N NTD-LKR-CTD (SARS-CoV-2, UniProt P0DTC9 44-369). The data set is described as follows: fluorescence polarization.
The target in data set [6] is N NTD-LKR (SARS-CoV-2, UniProt P0DTC9 44-247). The data set is described as follows: fluorescence polarization.
For data set [7], the target named is T4, N NTD-LKR-CTD. The data set is described as follows: fluorescence polarization. This is another data set of the same source.
Data set [8] has as its target T1, N NTD. Put plainly: fluorescence polarization. This is another data set of the same source.
Data set [9] deals with N NTD-LKR;N CTD (SARS-CoV-2;SARS-CoV-2, UniProt P0DTC9;P0DTC9 44-247;248-369, |). Put plainly: fluorescence polarization.
In data set [10] the target is N NTD;N LKR-CTD (SARS-CoV-2;SARS-CoV-2, UniProt P0DTC9;P0DTC9 44-176;177-369, |). The data set is described as follows: fluorescence polarization.
Data set [11] concerns the target T2, N CTD. Put plainly: fluorescence polarization. This is another data set of the same source.
The target of data set [12] is N LKR-CTD (SARS-CoV-2, UniProt P0DTC9 177-369). Put plainly: fluorescence polarization.
Data set [13] deals with T3, N WT. The data set is described as follows: fluorescence anisotropy.
Data set [14] concerns the target T4, N NTD-LKR-CTD. Put plainly: fluorescence anisotropy.

The Kd is the concentration at which binding is half-saturated. Turning to GGAAGAUUAAUAAUUUUCC (structured_RNA) [19-nt slRNA], the Kd is 124 ± 84 µM in data set [1]; 65 ± 44 µM in data set [2]; 100 ± 10 nM in data set [3]; 51 ± 4 nM in [4]; 220 ± 20 nM in data set [5]; 2500 nM and 3000 nM in data set [6].

As to UUUCACCUCCCUUUCAGUUU (ssRNA) [20-nt ssRNA], the Kd in data set [7] is 6 ± 2 nM; in [8] it was 16 ± 12 µM; in data set [9], 440 ± 40 nM; in [10] it was 720 ± 90 nM; in [3], 6 ± 2 nM; in data set [4], 7 ± 1 nM. The dissociation constant Kd in data set [11] worked out at 13 ± 5 µM; in [12], 350 ± 40 nM; in data set [6] it was 500 ± 80 nM; in data set [13], 7 ± 1 nM; in data set [14] it was 6 ± 2 nM.
